The text below walks through data of paper PMC5015840.

This test deals with MBP-OsIAA10 (rice).

B1: RDV P2 in RDV-infected rice plants (natural protein)
chain: MAYPNDVRNVWDVYNVFRDVPNREHLIRDIRNGLVTVRNLTNMLTNMERDDQLIIAQLSNMMKSLSIGVEKAQNELSKLKTTDADRAAVLAAYQTSVLNIERNTMLLTGYFKQLVLDLTGYVGASVYPILPFMITGDQSMMVDSIKINMKNVFDDKHEQEIVLPIHPACFVSTITEDTSSVVYADGDELYSVHVRHATMTMYVNVLGETVETRQLSMIGDSIVPDDFAPSLLILRFSQDSVGEVFYLSHDNMKKFLGYGLEYTDKYSIFDVTRRVSTTRNKIPDGFCSVDGVPYLDGWFIYQPSGISADSNICAIYNSYVLDTLRYITECEVDTLRSVYDQTSSTAFSKTDVLTSSLLTMQSNISALSAATPQLANDVITFDSTDLLSLGTVLTVSNEFTADDTILSTSLAGHCQVDYSEGSPQDKSMSISVSCDSSQLASSTVHSYSADILGHGLKGDRNMNLMINVPGLMNPQKVTVDYVYSDGYKLNFASVVAPGAPFWINATLQLSVSPSAHNMLSKLTPLDNDACPGLKAQANTPVLVSMTINLDDATPALGGEVIQNCVFKIHHGDDVYSFVTDFDVISYTSTSGTNCLKLISSVDITSQLPSDMVIYVMNGSPDAAFISGDSVNMSSVDWHQSTSQTVGNYVYTTMKAYWNVTSYDVEARPYTTYVPGKVNFTAVEHADVFVDDYNTGVNSYVIVNSRIYYKGTPLYIEVPSGSFIKVSYFTSPLKNPTVDTYNAEISRNSAYLIKANASLDSVAAMLNNISNRIDAMERLMEPTRAQQIAGVVSSIGGVISLGMPLLGAIVVTIGTIISIADPDKQGIDYHSVANAFMSWCQYAAVCRYEYGLLKRGDEKLDVLSFMPKRVVSDFKNKPDVISLPELGESVLRGSSTDYLDTGINIIYNDMQLLGQGKLSDWLNKTVSKVENNAANFFERNLDKSLANKEVLPMHARVEITQTEKIGDVYRTTILYTGINEGSYLGGDVFASRLGDKNILRMNGFESGPGRFKAIVESTTEVGNFRVVDWTVSGMSRYEIYAAAGEVYPSKDPSHADVQLLYESIVRDLTTRDGSFVLKHHDVLLLPGQLDAFEELIIKNASNYQYAFIGSNCSKLCA
With B1, the half-life of MBP-OsIAA10 in the cell-free degradation assay, RDV-infected against mock-inoculated rice extracts was over 2 fold.
